From US20260274928A1

Target: 13-strain panel of SARS-CoV-2 variant lineages (RBDs)
Assay: SPR, Fab on captured His-AviTag RBD, single-cycle kinetics

B1: S2V29-v37.2 Fab (Fab, V domains shown)
VH: EVQLVESGGSVVQPGRALRLSCAASGITFSSFGMYWVRQAPGKGLEWLGYIAYDGSDTYYADSVKGRFTISRDNSKNTLYLQMNSLRIEDTAVYYCAKDYYPLLSYYYGLDVWGQGTTVTVSS
VL: QSVLTQPRSVSGSPGQSVTISCTGTSSDVGAYNYVSWYQQHPGKAPKFMIYDVDQRPSGVPDRFSGSKSGNTASLIISGLQAEDEADYYCSSYAGSYIWVFGGGTQLTVL
Kd: 0.05 to 5 nM
median KD: 0.26 nM
